# Read-outs that look alike come from different tables or passages of the source. Me3 = trimethyl-lysine, K(Me3)
# Columns and labels:
# [1] = target: T1, WDR5Δ23 (WD repeat domain 5, residues 24–334) (human, UniProt P61964 24-334); assay: fluorescence polarisation
# [2] = target: T1, WDR5Δ23 (WD repeat domain 5, residues …); assay: fluorescence polarisation; remark: listed apart in the source
Binder,Ki [1] [nM],Ki [2] [µM],IC50 [2] [µM],IC50 [1] [µM]
Ac-ARAEVH-NH2 [Ac-6mer],90,,,
Ac-ARTKQTARKS-NH2 [Ac-H3-10mer (Ac-ARTKQTARKS-NH2)],,< 0.001,,

# Results, then the binder that gave them:
Ki [1] [nM],Ki [2] [µM],IC50 [2] [µM],IC50 [1] [µM],Binder
,15.6,73,,H-ARTK(Me3)QTARKS-NH2 [H3-10mer-K4Me3 (H2N-ARTK(Me3)QTARKS-NH2)]
6300,,,29,Ac-RAEVHLRKS-NH2 [Ac-9mer (Ac-10mer without Ala1)]
3,,,,Ac-ARAEVHLRKS-NH2 [Ac-10mer (Ac-ARAEVHLRKS-NH2)]
